B1: TPR t1 (parent)
chain: GACCAAUCUGCCCUCAGAGCUCGAGAACAUCUUCGGAUGCAGAGGAGGCAGGCUUCGGUGGCGCGAUAGCGCCAACGUCCUCAACCUCCAAUGCAUCCCACCACAUGAUGAUGCCUGAAGAGCCUUGGUUUUUUG

Variants of: B1
Assay: polymerase ribozyme fitness, log enrichment relative to wild type (log ratio); higher = more active; in vitro selection for triplet polymerase activity
How it was run: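 To select mutant libraries of each subunit of a heterodimeric triplet polymerase ribozyme, built by PCR and transcribed, each was annealed with a biotinylated primer, partner subunit and triplets, then incubated frozen at −7 °C. Extended constructs were gel-excised, captured on streptavidin beads and amplified by RT-PCR, in one round carried out in triplicate. Illumina sequencing of input and output libraries kept genotypes with ≥10 input reads and ≥1 read per output. Fitness is the base-2 logarithm of genotype enrichment relative to wild-type enrichment, from inverse-variance-weighted replicate averages.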

Point of comparison: U54C C115A G122A C123A U131A, “polymerase ribozyme fitness (log ratio)” value -1.4. Against it:
- C15G G113C — lower, -6.27
- C11G A66G C114U C124G — lower, -3.83
- U87G U92A G110A — lower, -4.75
- C56U C97U A108G U116C U133G — lower, -3.98
- A50C C62A C79U — lower, -1.8
- G36C U78G — higher, -1.1
- C49U C79G C104A — lower, -5.16
- U54C C72U C89U A111C — higher, -0.0742
- C34A G113C G117C — lower, -6.74
- G51U G60A C124U — lower, -4.52
- G63A U126G U130G — lower, -4.43
- A27U C40U C82A — lower, -3.5
- C34A G60A C72G C88U — lower, -6.11
- U78G C102G — lower, -4.94
- C13U U106G — higher, -0.787
- C8G G71A C72A C102A — lower, -3.77
- U9C C11U G17C A41U — lower, -4.76
- C20G C40A A66G G71A G93U U112C — lower, -6.06
- G10A C12U G19U C85U C123U — lower, -1.68
- C3U C11U G48A C56U C89G C101U — lower, -3.51
- C12A A74C G93A C124U U132A — within 0.2 log units, -1.34
- C72A G93C C102A U106A G110A U125A G127A — lower, -6.51
- A29G G57U G128C — lower, -3.73
- A74C A105C — lower, -2.34
- C22A G42U G71U G113C — lower, -5.64
- C8U U9G G57A — higher, -0.23
- C15G A90C — lower, -3.94
- A91U A111C — lower, -2.44
- C56U G69U C79U G120A U130G — within 0.2 log units, -1.59
- G57C G69C U131A — higher, -0.151
- A24G C53U — lower, -2.07
- G42A G60U C114G U129C — lower, -3.48
- G47A G48A C53A G127A — lower, -3.92
- U14G C56A G120C — higher, -0.0635
- A41G G61A — higher, -0.141
- C12U A46U C49U G63C A90C — lower, -4.26
- A74G U112G U116A — higher, -1.07
- C49U C70G — lower, -3.77
- C3A C15U C40U C88U — lower, -3.42
- C12U C56A C73A U78C A111G U129G — within 0.2 log units, -1.25
- A18G U129C — lower, -4.73
- C4G G61C G69U U112A — lower, -1.95
- G63A C89U — lower, -1.62
- G39C U54A G58U C114A — lower, -2.27
- U7C U112C G113U G135A — lower, -3.06
- G52U U81A — lower, -2.79
- U14G G48U — lower, -2.8
- G44A A111C U131G — lower, -2.35
- G10U A41U C72G C101U G110A — lower, -4.92
- A6G C56A G69U C104U — higher, -0.478
- G47A U112A — higher, -0.273
- G63A U131G — within 0.2 log units, -1.53
- A2G C82G — higher, -1.18
- C86A U132C U133A — within 0.2 log units, -1.36
- U7C C11G A100C G120A — higher, 1.21
- C53A C70U U78C C86G — higher, -1.12
- C79U G117C — lower, -3.9
- G60A C82U — higher, -0.523
- G71C A84G C104A U109G G117U C124A U130G — lower, -5.84
- G35C C49G C98G — lower, -2.89
- A50U A91C — lower, -3.23
- U9G C22U U54G C104U — lower, -4.59
- C3G C12G C53A G61U C114G — lower, -5.41
- C28G G60U U130G — lower, -2.82
- A5U G60C U96A C101A A119U — lower, -2.53
- U7C A16U C79U C85A — lower, -4.35
- C11G G52A C56A — higher, -0.203
- A2G G110U A118G — lower, -1.67
- C56G U133A — higher, -0.615
- C20U G69C C94U — lower, -2.8
- A83G — higher, -0.489
- A6U C40A G60U A105C — lower, -4.4
- C15U G58C G120C — higher, 0.694
- G19U C89U G120C — lower, -2.25
- U7G C80U — higher, 0.145
- A26C A43G G69A U78G C82G C115A C123U U130G — lower, -6.36
- G69U C98U — higher, 0.082
- G61U C98A C99A — lower, -5.19
- C79U A90G G107U — lower, -4.88
- A6U C8G G44U C49A C72A G77U G120C U130G — lower, -1.84
- C40G C56A — lower, -1.63
- C12U C72U C104A U125G — lower, -1.99
- U14G C101U U126G — lower, -4.96

Reference: the RNAGym collection of RNA variant scans (doi:10.1073/pnas.2313332121)
